{"source": "paper PMC6289173", "origin": "cited, not measured here", "target": "endophilin (UniProt O35179)", "data": [{"substance": "endophilin (from UniProt O35179)", "values": [{"measurement": "Kd", "result": 10, "unit": "µM"}]}]}
